Target: FITC-labeled 45-mer peptide derived from the C-terminal region of IKKβ
Experiment: fluorescence polarisation; fluorescence anisotropy binding assay with an FITC-labeled 45-mer peptide of IKKβ and bacterially expressed full-length NEMO proteins; conditions not told here (refs 13, 26)

Chain of full-length WT NEMO (aa 1-419), bacterially expressed (Q9Y6K9 whole entry, the tested form may be a part): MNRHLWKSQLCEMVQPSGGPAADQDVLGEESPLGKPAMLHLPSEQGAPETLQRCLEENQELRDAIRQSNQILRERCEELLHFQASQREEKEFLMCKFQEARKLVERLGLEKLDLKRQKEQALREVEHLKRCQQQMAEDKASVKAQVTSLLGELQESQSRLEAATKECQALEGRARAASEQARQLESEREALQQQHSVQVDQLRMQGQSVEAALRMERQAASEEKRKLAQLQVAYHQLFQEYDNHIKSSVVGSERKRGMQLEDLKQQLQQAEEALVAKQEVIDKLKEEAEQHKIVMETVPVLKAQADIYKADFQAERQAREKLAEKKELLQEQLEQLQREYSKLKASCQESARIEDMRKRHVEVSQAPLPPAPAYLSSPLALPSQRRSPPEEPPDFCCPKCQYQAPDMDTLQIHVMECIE

Q: With “full-length WT NEMO (aa 1-419), bacterially expressed (from UniProt Q9Y6K9 1-419) (natural protein)” as the substance, how does the Kd read?
A: 4.7 nM

Q: “OPTN-IVD-NEMO (aa 1-419), bacterially expressed (from UniProt Q9Y6K9 1-419) (natural protein)” was tested. Which Kd did it give?
A: 33 nM
